Consider 1 molecule from article PMC8324488 (Cell Reports Medicine, 2021).

The target in this assay is EBV glycoprotein gp350 (Epstein-Barr virus (strain B95-8) …, UniProt P03200-1). The assay can be described thus: flow cytometry on cells. (In flow cytometry, cells or beads pass a laser one at a time.)
Chain of EBV glycoprotein gp350 (P03200 whole entry): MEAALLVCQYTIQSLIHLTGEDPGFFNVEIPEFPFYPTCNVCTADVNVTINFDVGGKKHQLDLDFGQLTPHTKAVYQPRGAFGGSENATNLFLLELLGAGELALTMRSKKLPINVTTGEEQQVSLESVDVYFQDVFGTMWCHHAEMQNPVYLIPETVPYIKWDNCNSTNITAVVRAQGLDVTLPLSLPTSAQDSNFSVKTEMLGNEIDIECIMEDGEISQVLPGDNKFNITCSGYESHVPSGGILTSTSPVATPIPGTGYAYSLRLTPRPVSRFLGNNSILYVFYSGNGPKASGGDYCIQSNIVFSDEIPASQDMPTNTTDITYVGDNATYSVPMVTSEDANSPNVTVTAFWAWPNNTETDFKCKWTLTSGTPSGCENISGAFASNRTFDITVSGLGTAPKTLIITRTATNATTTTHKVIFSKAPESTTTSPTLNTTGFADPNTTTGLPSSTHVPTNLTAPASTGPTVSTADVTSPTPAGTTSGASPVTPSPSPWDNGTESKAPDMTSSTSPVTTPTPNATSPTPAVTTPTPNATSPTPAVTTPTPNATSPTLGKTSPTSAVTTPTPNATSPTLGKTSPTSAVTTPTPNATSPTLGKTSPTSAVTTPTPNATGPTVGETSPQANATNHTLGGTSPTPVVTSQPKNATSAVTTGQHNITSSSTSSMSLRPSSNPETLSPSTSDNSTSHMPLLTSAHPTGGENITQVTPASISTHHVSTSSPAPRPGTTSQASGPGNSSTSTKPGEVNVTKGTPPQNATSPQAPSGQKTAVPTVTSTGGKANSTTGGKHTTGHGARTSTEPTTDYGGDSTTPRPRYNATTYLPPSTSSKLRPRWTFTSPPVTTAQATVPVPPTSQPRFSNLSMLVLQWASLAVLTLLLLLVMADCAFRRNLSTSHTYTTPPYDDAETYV

B1: 72A1, original hybridoma antibody (antibody, V domains shown)
VH: EVQLQQSGPELVKPGTSMKISCKASGSSFTDYTMNWMKQSHGKNLEWIGLINPYNGGTRYNQKFKGKATLTLDKSSSTAYMEVLSLTSEDSAVYYCAGGLRRVNWFAYWGQGTLVSVSA
VL: QAVLTQESALTTSPGETVTLTCRSSTGAVTTSNYANWVQEKPDHLFTGLIGGTNNRVPGVPARFSGSLIGDKAALTITGAQTEDEAIYFCVLWHSNHWVFGGGTKLTVL
For B1, the binding result is recorded as “binds”.
